Publication PMC5431231, “Identification of a nanobody specific to human pulmonary surfactant protein A” (Scientific Reports, 2017)
Read-outs that look alike come from different tables or passages of the source.

Assays:
[1] = biological target: T1, human pulmonary SP-A protein in human lung tissue (Homo sapiens, endogenous lung tissue, UniProt Q8IWL2)
[2] = biological target: T1, human pulmonary SP-A protein in human …; experiment: far-Western, overlay or dot blot; human lung tissue homogenate proteins separated by SDS-PAGE, transferred to a PVDF membrane and probed with Nb4 overnight at 4 °C; detected with anti-His-HRP; settings: one partner purified
[3] = biological target: T2, recombinant human SP-A protein (pulmonary surfactant protein A) (Homo sapiens, UniProt Q8IWL2); experiment: BLI; ForteBio's Octet System; Nb4 and purified recombinant human SP-A; who was immobilised is not stated; settings: both partners purified
T2 construct: human pulmonary surfactant protein A; gene provided by Shanghai YouLong Biotech; About 41 kDa on SDS-PAGE, which would fit a fusion with the carrier of the pET32 vector; also called purified recombinant SP-A; PET32-SPA; source: E. coli BL21 (PET32-SPA), purified

[4] = biological target: T3, SP-A in human lung epithelial A549 cells (Homo sapiens, endogenous in A549 cells, UniProt Q8IWL2); experiment: immunostaining of cells or tissue; fixed A549, L-02 and 293T cells stained with Nb4-FITC; confocal microscopy; settings: one partner purified
T3 construct: human pulmonary surfactant protein A, endogenous in A549 cells; source: endogenous, A549 cells, fixed
T3 sequence (Q8IWL2 21-248): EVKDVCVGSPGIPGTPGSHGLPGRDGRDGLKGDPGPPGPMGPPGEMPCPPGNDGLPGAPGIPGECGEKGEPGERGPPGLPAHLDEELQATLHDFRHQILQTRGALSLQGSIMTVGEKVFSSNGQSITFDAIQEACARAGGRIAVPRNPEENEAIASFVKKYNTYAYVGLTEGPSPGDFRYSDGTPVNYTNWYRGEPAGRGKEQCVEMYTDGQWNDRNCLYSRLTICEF

T1 sequence (Q8IWL2 21-248): as above
T2 sequence (Q8IWL2 21-248): as above

B1: Nb11 (VHH)
VHH: QLQLVESGGGLVQPGGSLRLSCTASKFHLDSYAVAWFRQTPGKEREAVSFINTSDDVTYFADSVKGRFTISRDNSKNTVYLQMNVLKPEDTSIYVCAAVRSPGPTGPSMQPMWSVPDLYDYWGQGTQVTVSS
- binding result [1]: binds

B2: Nb4 (anti-human pulmonary SP-A nanobody) (VHH)
VHH: QLQLVESGGGLVQPGGSLRLSCAASEFTLDYYEIGWFRQAPGKDREGLSCIGYSDRIAYYSESVKGRFTTVRDDATSTVSLYMDMMIPEDTGTYYCAGSVVEPYELLPAAEYDYWGQGTRVTVSS
notes: About 19 kDa on SDS-PAGE; also called Nb4-His; source: E. coli BL21 (pET-26b (+)-VHH), purified
- binding result [2]: binds
- Kd [3]: 748 nM

B3: Nb4-FITC (VHH)
VHH: QLQLVESGGGLVQPGGSLRLSCAASEFTLDYYEIGWFRQAPGKDREGLSCIGYSDRIAYYSESVKGRFTTVRDDATSTVSLYMDMMIPEDTGTYYCAGSVVEPYELLPAAEYDYWGQGTRVTVSS
notes: as the VHH chain of m1; Same nanobody as m1, with a FITC label; also called Nb4 labeled with FITC; source: E. coli BL21 (pET-26b (+)-VHH), purified, labeled with FITC
- binding result [4]: binds

B4: Nb6 (VHH)
VHH: QLQLVESGGDLAQPGGSLTLSCTASGTFKIYSMGWYRRPQRELVAEMLNGGDTQYSDSVKGRFTISRTNNTMYLHMNNLKPEDTAVYYCNLQDWYSEPAGDYWGPGTQVTVSS
- binding result [1]: binds

B5: Nb15 (VHH)
VHH: QLQLVESGGGLVQPGGSLSVSCAVRGRDLDYYVIGWFRQAPGKEREGVSCINNSDDTTYYSDSVKGRFTISRDHAKNTVYLQMNNLKPEDTALYYCAADFDRLDFTVKAMCVMKFFYYWGQGTQVTVSS
- binding result [1]: binds

B6: Nb29 (VHH)
VHH: QVKLVESGGGSVQAGGSLRLSCTASGSDYRWMYIARFRQCPGKEREGVAAIYTDDTDDSSPIYATSAKGRFTISQDKDKNAVYLQMNSPKPEDTAMYYCAARAFGGTWSLSSPDDFSAWGQGTQVTVSS
- binding result [1]: binds

B7: Nb38 (VHH)
VHH: QVKLVESGGGSVQAGGSLILSCTASGSDYRWMYIARFRQCPGKEREGVAAIYTDDTDDSSPIYATSAKGRFTISQDKDKNAVYLQMNSPKPEDTAMYYCAARAFGGTWSLSSPDDFSAWGQGTQVTVSS
- binding result [1]: binds

B8: Nb43 (VHH)
VHH: QLQLVESGGGLVQSGGSLRLSCAASGFTFNDYRMSWVRQAPGKGLEWVSDINSGGSSTYYADSVKGRFTVSRDNAKNTLYLQMNSLKPEDTAIYYCVALLGRGCSGLVQGAFGPWGQGTQVTVSS
- binding result [1]: binds

B9: Nb17 (VHH)
VHH: QLQLVESGGGLVQPGGSLRLACAASGFNLDDYADIGWFRQAPGKERERVLCITISDGTTYYEDSGKGRFSISTDIAKNTVFLQMDSLKAEDTAVYYCAGDPAPFCLYNTYVPRTWGQGTQVTVSS
- binding result [1]: binds
